Experimental data as given in patent US20210070881A1 (DENALI THERAPEUTICS, published 2021).
Where a chain is given by its changes, count along the chain named.

B1: hu2H8v29.12 (antibody, V domains shown)
VH: QVQLVQSGAEVKKPGASVKVSCKASGYTFNNFWIHWVRQAPGQGLEWMGMIDPSDSYTKYNQKFKARATLTVDTSTSTVYMELSSLRSEDTAVYYCARSGVAFPYWGQGTLVTVSS
VL: DIQMTQSPSSLSASVGDRVTITCKASQDVGRNVAWYQQKPGKSPKSLIYSASHRYSGVPSRFSGSGSGTDFTLTISSLQPEDFATYFCQQYNSYPYTFGQGTKVEIK
notes: captured via human Fc; also called hu2H8_LC5 + hu2H8_HC6.1
B2: hu2H8v29.15 (antibody, V domains shown)
VH: B1 VH with N30T, W33Y
VL: B1 VL
notes: captured via human Fc; also called hu2H8_LC5 + hu2H8_HC6.4
B3: hu2H8v29.27 (antibody, V domains shown)
VH: B1 VH with N30T, D55S, V101A, A102S, F103L
VL: B1 VL with R54Y, N92Y
notes: captured via human Fc; also called hu2H8_LC5.12 + hu2H8_HC6.16
B4: hu2H8v29.28 (antibody, V domains shown)
VH: B1 VH with N30T, S54D, D55S, V101A, A102S, F103L
VL: B1 VL with R54Y, N92Y
notes: captured via human Fc; also called hu2H8_LC5.12 + hu2H8_HC6.17
B5: hu2H8v29.13 (antibody, V domains shown)
VH: B1 VH with N30T, F32Y
VL: B1 VL
notes: captured via human Fc; also called hu2H8_LC5 + hu2H8_HC6.2
B6: hu2H8v29.17 (antibody, V domains shown)
VH: B1 VH with N30T, D55S
VL: B1 VL
notes: captured via human Fc; also called hu2H8_LC5 + hu2H8_HC6.6
B7: hu2H8v29.25 (antibody, V domains shown)
VH: B1 VH with N30T, V101A, F103L
VL: B1 VL
notes: captured via human Fc; also called hu2H8_LC5 + hu2H8_HC6.14
B8: hu2H8v29.16 (antibody, V domains shown)
VH: B1 VH with N30T, M50I
VL: B1 VL
notes: captured via human Fc; also called hu2H8_LC5 + hu2H8_HC6.5
B9: hu2H8v29.19 (antibody, V domains shown)
VH: B1 VH with N30T, D55G
VL: B1 VL
notes: captured via human Fc; also called hu2H8_LC5 + hu2H8_HC6.8
B10: hu2H8v29.26 (antibody, V domains shown)
VH: B1 VH with N30T, V101G, F103L
VL: B1 VL
notes: captured via human Fc; also called hu2H8_LC5 + hu2H8_HC6.15
B11: hu2H8v29.21 (antibody, V domains shown)
VH: B1 VH with N30T, F103L
VL: B1 VL
notes: captured via human Fc; also called hu2H8_LC5 + hu2H8_HC6.10
B12: hu2H8v29.18 (antibody, V domains shown)
VH: B1 VH with N30T, D55E
VL: B1 VL
notes: captured via human Fc; also called hu2H8_LC5 + hu2H8_HC6.7
B13: hu2H8v29.20 (antibody, V domains shown)
VH: B1 VH with N30T, S56A
VL: B1 VL
notes: captured via human Fc; also called hu2H8_LC5 + hu2H8_HC6.9
B14: hu2H8v29.24 (antibody, V domains shown)
VH: B1 VH with N30T, V101A, A102S, F103L
VL: B1 VL
notes: captured via human Fc; also called hu2H8_LC5 + hu2H8_HC6.13
B15: hu2H8v29.14 (antibody, V domains shown)
VH: B1 VH with N31S, F32Y
VL: B1 VL
notes: captured via human Fc; also called hu2H8_LC5 + hu2H8_HC6.3
B16: hu2H8v29.23 (antibody, V domains shown)
VH: B1 VH with N30T, A102S, F103L
VL: B1 VL
notes: captured via human Fc; also called hu2H8_LC5 + hu2H8_HC6.12
B17: hu2H8v29.22 (antibody, V domains shown)
VH: B1 VH with N30T, F103L, Y105S
VL: B1 VL
notes: captured via human Fc; also called hu2H8_LC5 + hu2H8_HC6.11
B18: 2H8.37 (antibody, human IgG1, V domains shown)
VH: EVQLQQSGPELVKPGASVKLSCKASGYTFTNFWIHWLKQRPGQGLEWIGMIDPSDSYTKYNQKFKAKATLTVDTSSSTTYMHLSSLTSEDSAVYYCARSGVAFPYWGQRTLVTVSA
VL: DILMTQSQKFMSTSVGDRVSVTCKASQNVGRNVAWYQQISGQSPKPLIYSASHRYSGVPDRFTGSGSGTDFTLTISNVQSEDLVEFFCQQYNSYPYTFGGGTKLEIK
notes: human IgG1/kappa; also called 2H8_HC + 2H8_LCvar7
B19: 2H8.04 (antibody, human IgG1, V domains shown)
VH: EIQLQQSGTELVRPGTSVKLSCKASGYTFTNYWMHWVKQRPGQGLEWIGMIDPSAAYTNYNQNFKGKATLTVDTSSGTAYMQLSSLTSEDSAVYYCARSGVAFPYWGQGTTVTVSS
VL: B18 VL with L3V, T13K, R18T, N28D, I39K, P46S, V84A, E85D, F86Y, K103R
notes: human IgG1/kappa; also called 2H8_HCvar4 + 2H8_LC
B20: 2H8.39 (antibody, human IgG1, V domains shown)
VH: B18 VH with P9A, K13R, A16T, N31S, F32Y, L37V, A66D
VL: B18 VL
notes: human IgG1/kappa; also called 2H8_HCvar3 + 2H8_LCvar7
B21: 2H8.41 (antibody, human IgG1, V domains shown)
VH: EVQLQQPGAEVVRPGTSVKLSCKASGYTFTNYWMHWVKQRPGQGLEWIGMIDPSDNYTKYNQKLKGKATLTVDTSSSTANMHVNSLTSEDSAVYFCARSGVAFPYWGQGTLVTVSA
VL: B18 VL
notes: human IgG1/kappa; also called 2H8_HCvar5 + 2H8_LCvar7
B22: 2H8.02 (antibody, human IgG1, V domains shown)
VH: B19 VH with I2V, S7P, V37I, A55D, A56T, N59K, Y60F, G77S, S84N
VL: B18 VL with L3V, T13K, R18T, N28D, I39K, P46S, V84A, E85D, F86Y, K103R
notes: human IgG1/kappa; also called 2H8_HCvar2 + 2H8_LC
B23: 2H8.35 (antibody, human IgG1, V domains shown)
VH: B21 VH
VL: B18 VL with L3Q, T13K, R31S, I39K, P46S, V84A, E85D, F86Y, K103R
notes: human IgG1/kappa; also called 2H8_HCvar5 + 2H8_LCvar6
B24: 2H8.05 (antibody, human IgG1, V domains shown)
VH: B21 VH
VL: B18 VL with L3V, T13K, R18T, N28D, I39K, P46S, V84A, E85D, F86Y, K103R
notes: human IgG1/kappa; also called 2H8_HCvar5 + 2H8_LC
B25: 2H8.42 (antibody, human IgG1, V domains shown)
VH: EVQLQQSGAELVRPGTSVKLSCKASGYTFNNYWMHWVKQRPGQGLEWIGMIDPSDDDIKNNQKFKGKATLTVDTSSSTAYMQLISLTSEDSAVYYCARSGVALPYWGQGTLVTVSA
VL: B18 VL
notes: human IgG1/kappa; also called 2H8_HCvar6 + 2H8_LCvar7
B26: 2H8.32 (antibody, human IgG1, V domains shown)
VH: B19 VH with I2V, S7P, V37I, A55D, A56T, N59K, Y60F, G77S, S84N
VL: B18 VL with L3Q, T13K, R31S, I39K, P46S, V84A, E85D, F86Y, K103R
notes: human IgG1/kappa; also called 2H8_HCvar2 + 2H8_LCvar6

Legend:
[1] = target: T1, recombinant BACE1 (BACE1 extracellular domain, R&D Systems Cat#931-AS) (UniProt P56817 22-457); experiment: SPR Biacore 8K, antibody captured, BACE1 analyte
T1 construct: extracellular domain; also called BACE1 extracellular domain protein
Protocol: The binding affinities of the affinity matured humanized 2H8 variants for BACE1 were determined by surface plasmon resonance using a Biacore™ 8K instrument. […] The binding was monitored for 300 seconds and then dissociation was monitored for 600+ seconds in HBS-EP+ running buffer (GE Healthcare Life Sciences, BR100669). Binding response was corrected by subtracting the RU from a blank flow cell. A 1:1 Langmuir model of simultaneous fitting of kₒₙ and koff was used for kinetics analysis.

[2] = target: cellular BACE1 in CHOK1-huAPP cells; experiment: cell-based or functional assay
[3] = target: T1, recombinant BACE1 (BACE1 extracellular …); experiment: SPR Biacore

T1 sequence (P56817 22-457): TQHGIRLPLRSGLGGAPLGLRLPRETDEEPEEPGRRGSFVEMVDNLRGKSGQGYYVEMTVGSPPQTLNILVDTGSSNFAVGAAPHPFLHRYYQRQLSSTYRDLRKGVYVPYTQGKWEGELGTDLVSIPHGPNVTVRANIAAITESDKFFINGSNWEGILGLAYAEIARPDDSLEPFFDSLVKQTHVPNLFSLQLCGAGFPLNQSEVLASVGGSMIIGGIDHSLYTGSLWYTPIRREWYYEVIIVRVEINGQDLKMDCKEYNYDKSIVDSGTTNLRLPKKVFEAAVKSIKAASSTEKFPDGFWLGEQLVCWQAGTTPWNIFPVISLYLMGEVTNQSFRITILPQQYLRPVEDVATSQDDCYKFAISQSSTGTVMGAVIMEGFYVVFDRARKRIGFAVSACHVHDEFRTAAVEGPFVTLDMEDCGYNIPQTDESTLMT

| Binder | Kd [1] [nM] | IC50 [2] [nM] | Max. % inhibition [2] [%] | Kd [3] [nM] | koff [3] [s⁻¹] | kon [3] [M⁻¹ s⁻¹] |
| --- | --- | --- | --- | --- | --- | --- |
| B1 | 8.42 | – | – | – | – | – |
| B2 | 19.2 | – | – | – | – | – |
| B3 | 3.4 | – | – | – | – | – |
| B4 | 4.8 | – | – | – | – | – |
| B5 | 9.16 | – | – | – | – | – |
| B6 | 8.04 | – | – | – | – | – |
| B7 | 6.08 | – | – | – | – | – |
| B8 | 31.3 | – | – | – | – | – |
| B9 | 9.95 | – | – | – | – | – |
| B10 | 8.52 | – | – | – | – | – |
| B11 | 6.68 | – | – | – | – | – |
| B12 | 10.3 | – | – | – | – | – |
| B13 | 8.69 | – | – | – | – | – |
| B14 | 5.73 | – | – | – | – | – |
| B15 | 9.32 | – | – | – | – | – |
| B16 | 7 | – | – | – | – | – |
| B17 | 6 | – | – | – | – | – |
| B18 | – | 32 | 93 | 16.4 | 0.000331 | 20200 |
| B19 | – | 26 | 82 | 15.6 | 0.000362 | 23300 |
| B20 | – | 43 | 86 | 13 | 0.000217 | 16600 |
| B21 | – | 36 | 86 | 10.7 | 0.000197 | 18500 |
| B22 | – | 42 | 81 | 13.1 | 0.000265 | 20200 |
| B23 | – | 41 | 85 | 15.2 | 0.000171 | 11200 |
| B24 | – | 44 | 87 | 13.7 | 0.000251 | 18300 |
| B25 | – | 53 | 97 | 11.6 | 0.000221 | 19000 |
| B26 | – | 61 | 86 | 11.4 | 0.000172 | 15100 |
